A word on the stoichiometry N: it is the number of molecules, sites or subunits per partner or assembly.

The experiment addresses purified recombinant DPP9-FLAG, Q86TI2. Nature of the experiment: SEC + native gel or EMSA; protein expressed alone in Expi293F, purified by anti-FLAG IP, Superdex 200 Increase 10/300 GL; BN-PAGE immunoblot. Particulars: remark: other sources report otherwise.

B1: purified recombinant DPP9-FLAG, Q86TI2 1-863 (enzyme)
chain: MATTGTPTADRGDAAATDDPAARFQVQKHSWDGLRSIIHGSRKYSGLIVNKAPHDFQFVQKTDESGPHSHRLYYLGMPYGSRENSLLYSEIPKKVRKEALLLLSWKQMLDHFQATPHHGVYSREEELLRERKRLGVFGITSYDFHSESGLFLFQASNSLFHCRDGGKNGFMVSPMKPLEIKTQCSGPRMDPKICPADPAFFSFINNSDLWVANIETGEERRLTFCHQGLSNVLDDPKSAGVATFVIQEEFDRFTGYWWCPTASWEGSEGLKTLRILYEEVDESEVEVIHVPSPALEERKTDSYRYPRTGSKNPKIALKLAEFQTDSQGKIVSTQEKELVQPFSSLFPKVEYIARAGWTRDGKYAWAMFLDRPQQWLQLVLLPPALFIPSTENEEQRLASARAVPRNVQPYVVYEEVTNVWINVHDIFYPFPQSEGEDELCFLRANECKTGFCHLYKVTAVLKSQGYDWSEPFSPGEDEFKCPIKEEIALTSGEWEVLARHGSKIWVNEETKLVYFQGTKDTPLEHHLYVVSYEAAGEIVRLTTPGFSHSCSMSQNFDMFVSHYSSVSTPPCVHVYKLSGPDDDPLHKQPRFWASMMEAASCPPDYVPPEIFHFHTRSDVRLYGMIYKPHALQPGKKHPTVLFVYGGPQVQLVNNSFKGIKYLRLNTLASLGYAVVVIDGRGSCQRGLRFEGALKNQMGQVEIEDQVEGLQFVAEKYGFIDLSRVAIHGWSYGGFLSLMGLIHKPQVFKVAIAGAPVTVWMAYDTGYTERYMDVPENNQHGYEAGSVALHVEKLPNEPNRLLILHGFLDENVHFFHTNFLVSQLIRAGKPYQLQIYPNERHSIRCPESGEHYEVTLLHFLQEYL
For B1, the stoichiometry N was found to be 2.

The record behind these values is paper PMC11773481.
